Patent US20240336681A1 (LUDWIG MAXIMILIANS UNIVERSIT T M NCHEN, published 2024)

Columns and labels:
[1] = target: recombinant C-terminally His-tagged human CD47 (extracellular domain) (human) (UniProt Q08722); experiment: SPR, Biacore X100; construct captured by anti-human Fc on CM5 chip, human CD47 extracellular domain as analyte, 1:1 fit
[2] = target: recombinant C-terminally His-tagged human CD47 (extracellular domain) (human) (UniProt Q08722); experiment: SPR, Biacore X100; analyte hCD47 31.25 to 2000 nM
[3] = target: recombinant C-terminally His-tagged human CD47 (extracellular domain) (human) (UniProt Q08722); experiment: SPR (affinity to CD47 as measured by SPR)
[4] = target: T1, recombinant C-terminally His-tagged human CD47 (extracellular domain) (human, UniProt Q08722 19-141); experiment: SPR, Biacore X100
T1 construct: also called recombinantly expressed human CD47 extracellular domain
T1 sequence (Q08722 19-141): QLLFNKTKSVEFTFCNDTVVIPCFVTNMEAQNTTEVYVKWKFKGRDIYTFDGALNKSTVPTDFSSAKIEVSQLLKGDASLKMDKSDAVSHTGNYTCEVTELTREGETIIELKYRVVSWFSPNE

[5] = target: T1, recombinant C-terminally His-tagged …; experiment: SPR, Biacore X100; format for the scFv not described

Sequence of recombinant C-terminally His-tagged human CD47 (extracellular domain) (human) (Q08722 19-141): as above

B1: MSL-745 (bispecific antibody, part only; not given: anti-mesothelin IgG1 chains and linkers, V domains shown, not shown: another chain or arm of the molecule; large carriers; small tags and cut ends)
VH: QVELVQSGPEVKKPGSSVKVSCKASGYTFPSYDINWVRQRPGQCLEWMGGIYPRSGSPKYNEKFKGRVTITADTSTSTAYMELHSLRSEDTAVYYCARSVYYGTQFAYWGQGTLVTVSA
VL: DIVLTQSPSSLAVSLGERVTMSCKSSQSLLNSRTRKNYLAWYQQKPGQPPKLLIYWASTRDSGVPDRFSGSGSGTDFTLTISSLQAEDVAVYYCQQSFNLVTFGCGTKLEIK
**Q.** How did the Kd [1] turn out when B1 was run?
**A.** 578 nM

**Q.** What about the koff [2] of the same binder?
**A.** 0.396 s⁻¹

**Q.** And the kon [2]?
**A.** 685000 M⁻¹ s⁻¹

B2: 2D6-059 (bispecific antibody, part only; not given: linkers and anti-TAA IgG1 chains, V domains shown, not shown: another chain or arm of the molecule; large carriers; small tags and cut ends)
VH: QVELVQSGPEVKKPGSSVKVSCKASGYTFPSYDINWVRQRPGQCLEWMGGIYPRSGSPKYNEKFKGRVTITADTSTSTAYMELHSLRSEDTAVYYCARSVYYGTQFAYWGQGTLVTVSA
VL: DIVLTQSPSSLAVSLGERVTMSCKSSQSLLNSRTRKNYLAWYQQKPGQPPKLLIYWASTRDSGVPDRFSGSGSGTDFTLTISSLQAEDVAVYYCQQSFNLVTFGCGTKLEIK
**Q.** Which Kd [3] does the source give for B2 here?
**A.** 568 nM

B3: 2D6-056 (bispecific antibody, part only; not given: linkers and anti-TAA IgG1 chains, V domains shown, not shown: another chain or arm of the molecule; large carriers; small tags and cut ends)
VH: QVELVQSGPEVKKPGSSVKVSCKASGYTFPSYDINWVRQRPGQGLEWMGGIYPRSGSPKYNEKFKGRVTITADTSTSTAYMELHSLRSEDTAVYYCARSVYYGTQFAYWGQGTLVTVSA
VL: DIVLTQSPSSLAVSLGERVTMSCKSSQSLLNSRTRKNYLAWYQQKPGQPPKLLIYWASTRDSGVPDRFSGSGSGTDFTLTISSLQAEDVAVYYCQQSFNLVTFGGGTKLEIK
**Q.** With B3 as the binder, how does the Kd [3] read?
**A.** 659 nM

B4: 2D6-096 (scFv, V domains shown, not shown: small tags and cut ends)
VH: QVQLVESGGGLVQPGGSLRLSCAASGYTFTSYDINWVRQAPGKGLEWVGWIYPRDGSPKYNEKFKGRFTISADTSKNTAYLQMNSLRAEDTAVYYCARSVYYGTQFAYWGQGTLVTVSS
VL: DIQMTQSPSSLSASVGDRVTITCKSSQSLLNSRTRKNYLAWYQQKPGKAPKLLIYWASTRDSGVPSRFSGSGSGTDFTLTISSLQPEDFATYYCKQSFNLVTFGQGTKVEIK
notes: Standalone scFv; also called anti-CD47 scFv (2D6-096); VH3/VL3
**Q.** With B4 as the binder, how does the koff [4] read?
**A.** 0.00163 s⁻¹

**Q.** What about the kon [4] of the same binder?
**A.** 81500 M⁻¹ s⁻¹

**Q.** And the Kd [5]?
**A.** 20 nM
